The target in one assay is T1, human GC-A (Homo sapiens, UniProt P16066).
T1 construct: expressed in transfected cells
T1 sequence (P16066 33-1061): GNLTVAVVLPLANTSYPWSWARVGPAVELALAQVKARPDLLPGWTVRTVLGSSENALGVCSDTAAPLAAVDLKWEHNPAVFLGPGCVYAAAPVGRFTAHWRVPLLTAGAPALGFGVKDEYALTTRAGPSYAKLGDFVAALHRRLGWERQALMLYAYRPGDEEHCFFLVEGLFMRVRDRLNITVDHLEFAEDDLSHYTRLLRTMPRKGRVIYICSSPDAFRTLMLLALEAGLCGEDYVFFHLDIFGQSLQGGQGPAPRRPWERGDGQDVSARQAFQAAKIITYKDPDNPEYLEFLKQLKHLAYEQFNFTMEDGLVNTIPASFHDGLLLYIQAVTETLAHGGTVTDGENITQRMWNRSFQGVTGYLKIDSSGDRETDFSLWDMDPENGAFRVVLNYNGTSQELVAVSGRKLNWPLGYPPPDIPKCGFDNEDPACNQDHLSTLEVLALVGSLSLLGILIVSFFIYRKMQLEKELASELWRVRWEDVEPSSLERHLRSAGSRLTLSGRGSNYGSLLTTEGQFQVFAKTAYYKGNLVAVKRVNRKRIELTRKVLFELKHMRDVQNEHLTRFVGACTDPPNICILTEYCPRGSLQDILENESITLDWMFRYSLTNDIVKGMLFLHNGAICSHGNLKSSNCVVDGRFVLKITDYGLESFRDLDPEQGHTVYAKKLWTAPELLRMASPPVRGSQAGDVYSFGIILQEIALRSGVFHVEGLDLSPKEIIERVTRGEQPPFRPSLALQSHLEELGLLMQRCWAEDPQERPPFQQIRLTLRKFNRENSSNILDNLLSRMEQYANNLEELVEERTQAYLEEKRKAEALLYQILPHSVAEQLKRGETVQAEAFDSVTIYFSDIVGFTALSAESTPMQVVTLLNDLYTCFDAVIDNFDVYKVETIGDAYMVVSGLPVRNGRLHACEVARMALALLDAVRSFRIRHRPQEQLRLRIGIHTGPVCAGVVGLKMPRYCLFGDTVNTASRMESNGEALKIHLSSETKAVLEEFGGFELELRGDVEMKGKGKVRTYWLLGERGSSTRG
In words: NP/GC-A/cGMP potency assay (Example 1): cGMP production in HEK293 cells overexpressing human GC-A. In kind it is cell-based.

For a further assay, the target named is T2, human pGC-A (Homo sapiens, UniProt P16066).
T2 construct: expressed in transfected cells
T2 sequence (P16066 33-1061): T1 sequence (P16066 33-1061)
In words: NP/pGC-A/cGMP potency assay (Example 5), HEK293 cells overexpressing human pGC-A. In kind it is cell-based. As for the experimental part:
(§1) In vitro Cell Culture: HEK 293 cells were stably transfected with human pGC-A or pGC-B using LIPOFECTAMINE™ (Invitrogen, Grand Island, NY) (Chen et al. 2020, supra). Transfected cells (HEK/GC-A or (HEK/GC-B) were maintained in DMEM supplemented with 10% FBS and 250 μg/ml G418. Cells in 48-well plates were grown to 80-90% confluency and then incubated in Hanks Balanced Salt Solution (HBSS, Invitrogen) containing 20 mM HEPES, 0.1% BSA, and 0.5 mM 3-isobutyl-1-methylxanthine (IBMX, Sigma).
NP/pGC-A/cGMP Potency Assay: Human plasma samples from patients with HT (N=6), ADHF (N=6), and CKD (N=5) were utilized. Stably transfected HEK293 cells engineered to overexpress human pGC-A were cultured (as described above) and were grown in 48-well plates to 80-90% confluence. On the day of the experiment, human plasma was diluted 10× with HBSS. […] Afterwards, the cells were washed once with PBS and lysed with 0.1M HCl. cGMP was then assayed using an ELISA (Enzo Life Sciences) as described elsewhere (Chen et al. 2018, supra).

Another assay addresses T3, human pGC-B (Homo sapiens, UniProt P20594).
T3 construct: expressed in transfected cells
T3 sequence (P20594 23-1047): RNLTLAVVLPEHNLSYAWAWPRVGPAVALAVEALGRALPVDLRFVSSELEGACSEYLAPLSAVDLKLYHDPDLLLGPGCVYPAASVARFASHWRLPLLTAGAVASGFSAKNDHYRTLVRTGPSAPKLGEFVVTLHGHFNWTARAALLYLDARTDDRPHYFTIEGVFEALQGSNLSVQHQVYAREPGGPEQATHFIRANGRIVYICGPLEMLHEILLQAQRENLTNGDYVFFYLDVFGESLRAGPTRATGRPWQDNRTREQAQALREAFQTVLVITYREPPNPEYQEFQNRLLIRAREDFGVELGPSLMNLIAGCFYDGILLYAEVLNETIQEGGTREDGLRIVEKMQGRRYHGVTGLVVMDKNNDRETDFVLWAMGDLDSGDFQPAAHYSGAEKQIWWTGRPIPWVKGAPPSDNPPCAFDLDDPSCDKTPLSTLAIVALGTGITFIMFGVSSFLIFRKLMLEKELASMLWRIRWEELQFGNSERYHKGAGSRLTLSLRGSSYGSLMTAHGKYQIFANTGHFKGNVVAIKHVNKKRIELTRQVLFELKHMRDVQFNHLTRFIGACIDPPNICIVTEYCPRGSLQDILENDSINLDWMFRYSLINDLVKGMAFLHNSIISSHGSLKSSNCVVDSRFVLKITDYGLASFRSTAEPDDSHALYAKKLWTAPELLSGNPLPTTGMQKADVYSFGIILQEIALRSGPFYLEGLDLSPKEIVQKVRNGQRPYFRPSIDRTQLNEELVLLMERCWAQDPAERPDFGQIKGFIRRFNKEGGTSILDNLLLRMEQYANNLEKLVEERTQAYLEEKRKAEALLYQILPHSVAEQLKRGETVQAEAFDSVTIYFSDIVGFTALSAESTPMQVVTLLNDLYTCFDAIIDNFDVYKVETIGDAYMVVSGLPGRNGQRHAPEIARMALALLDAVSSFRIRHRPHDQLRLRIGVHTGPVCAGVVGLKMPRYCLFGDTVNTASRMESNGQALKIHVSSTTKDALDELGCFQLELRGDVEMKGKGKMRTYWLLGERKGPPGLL
In words: NP/pGC-B/cGMP potency assay (Example 5), HEK293 cells overexpressing human pGC-B. In kind it is cell-based. To be noted: ADHF plasma. How it is done:
as §1
NP/pGC-B/cGMP Potency Assay: Human plasma samples from patients with ADHF (N=6) were utilized. Stably transfected HEK293 cells engineered to overexpress human pGC-B were cultured (as described above) and grown in 48-well plates to 80-90% confluence. On the day of the experiment, human plasma was diluted 10× with HBSS. Diluted plasma (250 μl) was added together with vehicle (PBS), native CNP (an endogenous pGC-B activator), C53 (a designer CNP analog/pGC-B activator) or CRRL-408 (a designer dual pGC-A and pGC-B activator) at doses of 10^−10, 10^−8, or 10^−7 M to the HEK/GC-B cells and incubated for 10 minutes at 37° C. Afterwards, cells were washed once with PBS and lysed with 0.1M HCl. cGMP was then assayed using an ELISA (Enzo Life Sciences) as described elsewhere (Chen et al. 2018, supra).

The target in assay [1] is human pGC-A receptor (human) (UniProt P16066). In words: cell-based or functional assay.

The results in this text go back to US20240369535A1, “METHODS AND MATERIALS FOR DETERMINING pGC TARGET DOSAGE” (Mayo Foundation for Medical Education and Research, priority 2021, published 2024).

Procedure for human GC-A: Transfected cells (HEK/GCA) were maintained in Dulbecco Modified Eagle medium (DMEM) supplemented with 10% FBS, and 250 μg/ml G418. Cells in 48-well plates were grown to 80-90% confluency and then incubated in Hanks Balanced Salt Solution (HBSS, Invitrogen) containing 20 mM HEPES, 0.1% BSA and 0.5 mM 3-isobutyl-1-methylxanthine (IBMX, Sigma).
A stable transfected cell line of HEK293 cells engineered to overexpress human GC-A was grown in 48-well plates to 80-90% confluency. […] Studies were repeated with human plasma with or without addition of the designer GC-A activator, MANP, at doses of 10^−10 M and 10^−8 M.

As for “MANP: designer pGC-A activator, polypeptide SLRRSSCFGGRMDRIGAQSGLGCNSFRYRITAREDKQGWA (SEQ ID NO:1)”, the “mean cGMP level” value was found to be 167 ± 14.1 pmol/mL with human GC-A (healthy plasma + 10^-8 M MANP); 45 ± 5.5 pmol/mL with human GC-A (healthy plasma + 10^-10 M MANP); 166.9 ± 9.1 pmol/mL in the assay with human GC-A (plasma of deficient ANP and BNP ADHF patients + 10^-8 M MANP); 33.8 ± 1.4 pmol/mL with human GC-A (plasma of deficient ANP and BNP ADHF patients + 10^-10 M MANP); 200.8 ± 5.4 pmol/mL with human GC-A (plasma of elevated ANP and BNP ADHF patients + 10^-8 M MANP); 60.4 ± 9.7 pmol/mL with human GC-A (plasma of elevated ANP and BNP ADHF patients + 10^-10 M MANP). Also, the cGMP levels entry in the assay with human pGC-A (ADHF plasma, dose 10^-8 M) is listed as “markedly potentiated”; with human pGC-A (ADHF plasma, dose 10^-10 M) it was “modestly potentiated”; in the assay with human pGC-A (CKD plasma, dose 10^-8 M), “markedly potentiated”; with human pGC-A (CKD plasma, dose 10^-10 M), “modestly potentiated”; with human pGC-A (HT plasma, dose 10^-8 M), “markedly potentiated”; with human pGC-A (HT plasma, dose 10^-10 M), “modestly potentiated”.

For “B-type natriuretic peptide [BNP, reference compound]”, the “mean cGMP level” value turned out to be 6.9 ± 0.9 pmol/mL in the assay with human GC-A (synthetic peptide alone, concentrations corresponding to ADHF deficient ANP and BNP plasma (ANP 16.8, BNP 47.4 pg/mL), 10 min); 80.3 ± 16.9 pmol/mL in the assay with human GC-A (synthetic peptide alone, concentrations corresponding to ADHF elevated ANP and BNP plasma (ANP 350, BNP 1225.7 pg/mL), 10 min); 4.7 ± 0.4 pmol/mL in the assay with human GC-A (synthetic peptide alone, concentrations mimicking healthy subject plasma (ANP 25.5, BNP 27 pg/mL), 10 min).

For “C53: designer pGC-B activator, 53 amino acid intermediate form of CNP (SEQ ID NO:5) (DLRVDTKSRAAWARLLQEHPNARKYKGANKKGLSKGCFGLKLDRIGSMSGLGC)”, the cGMP levels entry in the assay with human pGC-B (dose 10^-8 M) is on record as “markedly potentiated”; in the assay with human pGC-B (dose 10^-10 M (in a single patient)), “modestly potentiated”.

In assay [1], “synthetic human BNP (from UniProt P16860 103-134) (ligand)” had a cGMP in HEK293 cells overexpressing human GC-A; synthetic BNP at the level of ADHF plasma with elevated ANP and BNP (1225.7 pg/mL) of 80.3 pmol/mL; a mean cGMP in HEK293 cells overexpressing human GC-A; synthetic BNP at 27 pg/mL (level of healthy plasma) of 4.7 pmol/mL; a mean cGMP in HEK293 cells overexpressing human GC-A; synthetic BNP at the level of ANP and BNP deficient ADHF plasma (47.4 pg/mL) of 6.9 pmol/mL.

As to “C-type natriuretic peptide [CNP, reference compound]”, in the assay with human pGC-B (dose 10^-8 M), the cGMP levels result is listed as “markedly potentiated”.

Regarding “MANP (designer pGC-A activator) (peptide)”, in assay [1], the cGMP in HEK293 cells overexpressing human GC-A; plasma of ADHF patients with elevated ANP and BNP plus 10^-8 M MANP is 201 pmol/mL; the cGMP in HEK293 cells overexpressing human GC-A; plasma of ADHF patients with elevated ANP and BNP plus 10^-10 M MANP was found to be 60.4 pmol/mL.
